Data published in paper PMC5509211.

Target: actin filaments (skeletal muscle) (Gallus gallus), P68139
Conditions: modification not given

Kd: 9.3 µM
Binder: MGVADLIKKFESISKEE [mEGFP-Lifeact]
